Assay results: paper PMC8230603, “Rad52 Oligomeric N-Terminal Domain Stabilizes Rad51 Nucleoprotein Filaments and Contributes to Their Protection against Srs2”

Molecular target: Rad52-FLAG (Saccharomyces cerevisiae, UniProt P06778 1-471)
Assay: EMSA; 5 mM MgCl2; 10 mM Tris-HCl pH 8, 5 mM MgCl2, 100 mM NaCl, 37 °C, 10 min; 0.27 µM Cy5-DNA (nt per Fig 6 legend); 8% native PAGE
Conditions: protein: recombinant; tags: FLAG; chain copies: 10; label: 5'-Cy5 on strand 1; blunt

Sequence of Rad52-FLAG (P06778 whole entry): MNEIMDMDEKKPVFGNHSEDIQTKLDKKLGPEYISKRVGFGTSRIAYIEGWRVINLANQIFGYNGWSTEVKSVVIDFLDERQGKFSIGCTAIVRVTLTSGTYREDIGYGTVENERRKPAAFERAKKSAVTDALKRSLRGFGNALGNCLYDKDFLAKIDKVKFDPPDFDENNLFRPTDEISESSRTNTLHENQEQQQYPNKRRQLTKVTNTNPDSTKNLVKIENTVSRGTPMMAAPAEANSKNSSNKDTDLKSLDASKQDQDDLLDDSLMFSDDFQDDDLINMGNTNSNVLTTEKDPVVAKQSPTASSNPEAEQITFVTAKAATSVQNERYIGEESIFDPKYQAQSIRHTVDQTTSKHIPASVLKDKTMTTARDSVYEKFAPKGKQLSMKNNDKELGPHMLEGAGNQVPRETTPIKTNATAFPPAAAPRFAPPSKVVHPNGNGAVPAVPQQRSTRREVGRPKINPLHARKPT

B1: XV2 dsDNA (dsDNA)
DNA 1: TGGGTGAACCTGCAGGTGGGCAAAGATGTCCTAGCAATGTAATCGTCAAGCTTTATGCCGTT
DNA 2: AACGGCATAAAGCTTGACGATTACATTGCTAGGACATCTTTGCCCACCTGCAGGTTCACCCA
binding result: binds
